Source: article PMC5777896 (The FEBS journal, 2017)
Like-named read-outs stand apart in the source and are kept apart here.

B1: human Hsc20 (natural protein, UniProt Q8IWL3 72-235, looked up)
chain: DYFSLMDCNRSFRVDTAKLQHRYQQLQRLVHPDFFSQRSQTEKDFSEKHSTLVNDAYKTLLAPLSRGLYLLKLHGIEIPERTDYEMDRQFLIEIMEINEKLAEAESEAAMKEIESIVKAKQKEFTDNVSSAFEQDDFEEAKEILTKMRYFSNIEEKIKLKKIPL
B2: full-length human Nfu (natural protein, UniProt Q9UMS0 10-254, looked up)
chain: GAAAVAAGLRRRFCHMLKNPYTIKKQPLHQFVQRPLFPLPAAFYHPVRYMFIQTQDTPNPNSLKFIPGKPVLETRTMDFPTPAAAFRSPLARQLFRIEGVKSVFFGPDFITVTKENEELDWNLLKPDIYATIMDFFASGLPLVTEETPSGEAGSEEDDEVVAMIKELLDTRIRPTVQEDGGDVIYKGFEDGIVQLKLQGSCTSCPSSIITLKNGIQNMLQFYIPEVEGVEQVMDDESDEKEANSP

Key:
IscU (Escherichia coli) = IscU (Escherichia coli) (UniProt P0ACD4); experiment: SPR; conditions: cited from earlier work
Sequence of IscU (Escherichia coli) (P0ACD4 whole entry): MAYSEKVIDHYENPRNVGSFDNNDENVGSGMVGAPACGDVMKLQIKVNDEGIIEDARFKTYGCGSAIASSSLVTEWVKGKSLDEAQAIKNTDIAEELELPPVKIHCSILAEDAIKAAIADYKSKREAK

human HSPA9 (human) [1] = target: human HSPA9 (human) (UniProt P38646); experiment: ITC
Sequence of human HSPA9 (human) (P38646 47-679): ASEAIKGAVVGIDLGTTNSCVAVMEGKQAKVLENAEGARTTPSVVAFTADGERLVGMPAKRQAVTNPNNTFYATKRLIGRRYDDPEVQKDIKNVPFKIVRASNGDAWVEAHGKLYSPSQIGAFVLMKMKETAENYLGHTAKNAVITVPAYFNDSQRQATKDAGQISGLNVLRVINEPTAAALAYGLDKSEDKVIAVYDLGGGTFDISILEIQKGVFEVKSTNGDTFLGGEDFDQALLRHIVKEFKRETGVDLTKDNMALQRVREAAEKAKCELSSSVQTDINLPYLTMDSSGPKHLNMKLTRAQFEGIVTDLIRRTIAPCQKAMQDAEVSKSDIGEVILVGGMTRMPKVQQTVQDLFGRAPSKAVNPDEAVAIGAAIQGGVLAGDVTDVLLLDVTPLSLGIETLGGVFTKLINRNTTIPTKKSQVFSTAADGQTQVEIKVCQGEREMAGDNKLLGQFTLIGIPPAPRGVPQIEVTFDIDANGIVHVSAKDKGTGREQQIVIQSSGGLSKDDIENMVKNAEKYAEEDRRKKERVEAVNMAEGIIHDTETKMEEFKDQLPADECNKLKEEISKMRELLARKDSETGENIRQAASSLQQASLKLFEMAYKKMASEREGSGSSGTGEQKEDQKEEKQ

human Hsc20 (human) [2] = target: human Hsc20 (human) (UniProt Q8IWL3); experiment: ITC
human HSPA9 (human) [3] = target: human HSPA9 (human) (UniProt P38646)
human HSPA9 (human) [4] = target: human HSPA9 (human) (UniProt P38646); experiment: ITC; remark: listed apart in the source
human HSPA9 (human) [5] = target: human HSPA9 (human) (UniProt P38646); experiment: ITC; remark: listed apart in the source
human Hsc20 (human) [6] = target: human Hsc20 (human) (UniProt Q8IWL3); experiment: ITC; remark: listed apart in the source
human HSPA9 (human) [7] = target: human HSPA9 (human) (UniProt P38646); experiment: ITC; remark: listed apart in the source
full-length human Nfu = target: B2; experiment: ITC
human HSPA9 [8] = target: T1, human HSPA9 (human, UniProt P38646 47-679); experiment: ITC
T1 sequence (P38646 47-679): as above

[9] = target: T2, human HSPA9/Hsc20 complex (human, UniProt P38646 47-679; Q8IWL3 72-235); experiment: ITC
T2 sequence (P38646 47-679, one chain of several): as the sequence (P38646 47-679) above

[10] = target: T2, human HSPA9/Hsc20 complex; experiment: ITC; remark: listed apart in the source
human HSPA9 [11] = target: T1, human HSPA9; experiment: ITC; remark: listed apart in the source
human Hsc20 = target: B1; experiment: ITC
human HSPA9 [12] = target: T1, human HSPA9; experiment: cell-based or functional assay

HscA (from UniProt P0A6Z1)
Kd (IscU (Escherichia coli)): 39 µM

C-terminal domain of human Nfu (from UniProt Q9UMS0 10-254) (domain or fragment)
Kd (human HSPA9 (human) [1]): 14.9 µM | dH (human HSPA9 (human) [1]): -3.82 kcal/mol | stoichiometry N (human HSPA9 (human) [1]): 0.88 | Kd (human Hsc20 (human) [2]): 10 µM | dH (human Hsc20 (human) [2]): -0.57 kcal/mol | stoichiometry N (human Hsc20 (human) [2]): 0.79 | Vmax (maximum ratio of stimulation) of HSPA9 ATPase activity by C-Nfu, 0~150 µM (human HSPA9 (human) [3]): 2.44 fold | Kd (human HSPA9 (human) [4]): 18 µM | dH (human HSPA9 (human) [4]): -7.3 kcal/mol | Kd (human HSPA9 (human) [5]): 30.3 µM | dH (human HSPA9 (human) [5]): -2 kcal/mol | stoichiometry N (human HSPA9 (human) [5]): 0.907 | Kd (human Hsc20 (human) [6]): 11 µM | dH (human Hsc20 (human) [6]): -1.7 kcal/mol | stoichiometry N (human Hsc20 (human) [6]): 0.94 | Kd (human HSPA9 (human) [7]): 51 µM | dH (human HSPA9 (human) [7]): -3.2 kcal/mol

B1
Kd (full-length human Nfu): 10 ± 1 µM

B2
Kd (human HSPA9 [8]): 8.3 ± 1.4 µM | dH (human HSPA9 [8]): -6.3 ± 0.7 kcal/mol | stoichiometry N (human HSPA9 [8]): 0.9 ± 0.1 | Kd [9]: 9.43 ± 0.07 µM | dH [9]: -1.7 ± 0.1 kcal/mol | stoichiometry N [9]: 0.985 ± 0.04 | Kd [10]: 300 ± 100 nM | dH [10]: -3.4 ± 0.1 kcal/mol | stoichiometry N [10]: 0.95 ± 0.02 | Kd (human HSPA9 [11]): 36 ± 4 µM | dH (human HSPA9 [11]): -4.9 ± 0.1 kcal/mol | stoichiometry N (human HSPA9 [11]): 0.9 ± 0.2 | stoichiometry N (human Hsc20): 0.93 ± 0.06 | Vmax (maximum ratio of stimulation) of HSPA9 ATPase activity by Nfu, 0~150 µM (human HSPA9 [12]): 3.78 fold
